Laboratory results reported in patent US20140105889A1 (published 2014).

Legend:
human FcγRIIb = target: T1, human FcγRIIb (human, UniProt P31994 43-217); experiment: SPR (Biacore), antibody captured on chip, FcγR as analyte; binding amount divided by that of IL6R-F652/IL6R-L, times 100
T1 construct: also called FcγIIB; FcγRIIb extracellular region
T1 sequence: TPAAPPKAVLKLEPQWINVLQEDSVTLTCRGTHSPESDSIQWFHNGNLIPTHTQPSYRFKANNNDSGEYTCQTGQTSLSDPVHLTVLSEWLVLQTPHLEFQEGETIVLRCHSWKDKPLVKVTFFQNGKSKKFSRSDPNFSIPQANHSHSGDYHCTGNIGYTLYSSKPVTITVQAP

human FcγRIIa type R = target: T2, human FcγRIIa type R (human, UniProt P12318 36-217); experiment: as above
T2 construct: also called Fcγ RIIaR; FcγRIIa(R)
T2 chain: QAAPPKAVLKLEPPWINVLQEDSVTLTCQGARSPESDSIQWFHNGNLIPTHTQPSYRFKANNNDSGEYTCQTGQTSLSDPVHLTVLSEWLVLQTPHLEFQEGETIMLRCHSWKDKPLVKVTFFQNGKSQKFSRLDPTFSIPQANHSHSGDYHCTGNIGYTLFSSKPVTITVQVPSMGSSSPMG

B1: IL6R-F652/IL6R-L (antibody, human IgG1)
heavy: QVQLQESGPGLVKPSETLSLTCAVSGHSISHDHAWSWVRQPPGEGLEWIGFISYSGITNYNPSLQGRVTISRDNSKNTLYLQMNSLRAEDTAVYYCARSLARTTAMDYWGEGTLVTVSSASTKGPSVFPLAPSSKSTSGGTAALGCLVKDYFPEPVTVSWNSGALTSGVHTFPAVLQSSGLYSLSSVVTVPSSSLGTQTYICNVNHKPSNTKVDKKVEPKSCDKTHTCPPCPAPELLGGDSVFLFPPKPKDTLYISRTPEVTCVVVDVSHEDPEVKFNWYVDGVEVHNAKTKPREEQYNSTYRVVSVLTVLHQDWLNGKEYKCKVSNKALPAPIEKTISKAKGQPREPQVYTLPPSRDELTKNQVSLTCLVKGFYPSDIAVEWESNGQPENNYKTTPPVLDSDGSFFLYSKLTVDKSRWQQGNVFSCSVMHEALHYHYTQKSLSLSP
light: DIQMTQSPSSLSASVGDRVTITCRASQDISSYLNWYQQKPGKAPKLLIYYTSRLHSGVPSRFSGSGSGTDFTFTISSLQPEDIATYYCQQGNTLPYTFGQGTKVEIK
notes: Anti-human IL-6 receptor IgG1 antibody; H chain is IL6R-F11 (M252Y/N434Y in IL6R-G1d) with P238D (EU numbering); Control antibody of the PD variants; copies: 2 + 2
relative binding activity for FcγRIIb (human FcγRIIb): 100 % of the binding amount of IL6R-F652/IL6R-L
relative binding activity for FcγRIIaR (human FcγRIIa type R): 100 % of the binding amount of IL6R-F652/IL6R-L

B2: IL6R-PD079/IL6R-L (antibody, human IgG1)
heavy: QVQLQESGPGLVKPSETLSLTCAVSGHSISHDHAWSWVRQPPGEGLEWIGFISYSGITNYNPSLQGRVTISRDNSKNTLYLQMNSLRAEDTAVYYCARSLARTTAMDYWGEGTLVTVSSASTKGPSVFPLAPSSKSTSGGTAALGCLVKDYFPEPVTVSWNSGALTSGVHTFPAVLQSSGLYSLSSVVTVPSSSLGTQTYICNVNHKPSNTKVDKKVEPKSCDKTHTCPPCPAPELLGADSVFLFPPKPKDTLYISRTPEVTCVVVDVSHEDPEVKFNWYVDGVEVHNAKTKPREEQYNSTYRVVSVLTVLHQDWLNGKEYKCKVSNKALPAPIEKTISKAKGQPREPQVYTLPPSRDELTKNQVSLTCLVKGFYPSDIAVEWESNGQPENNYKTTPPVLDSDGSFFLYSKLTVDKSRWQQGNVFSCSVMHEALHYHYTQKSLSLSP
light: DIQMTQSPSSLSASVGDRVTITCRASQDISSYLNWYQQKPGKAPKLLIYYTSRLHSGVPSRFSGSGSGTDFTFTISSLQPEDIATYYCQQGNTLPYTFGQGTKVEIK
notes: PD variant: P238D/G237A introduced into IL6R-F11 (EU numbering); copies: 2 + 2
relative binding activity for FcγRIIb (human FcγRIIb): 101 % of the binding amount of IL6R-F652/IL6R-L
relative binding activity for FcγRIIaR (human FcγRIIa type R): 138 % of the binding amount of IL6R-F652/IL6R-L

B3: IL6R-PD081/IL6R-L (antibody, human IgG1)
heavy: QVQLQESGPGLVKPSETLSLTCAVSGHSISHDHAWSWVRQPPGEGLEWIGFISYSGITNYNPSLQGRVTISRDNSKNTLYLQMNSLRAEDTAVYYCARSLARTTAMDYWGEGTLVTVSSASTKGPSVFPLAPSSKSTSGGTAALGCLVKDYFPEPVTVSWNSGALTSGVHTFPAVLQSSGLYSLSSVVTVPSSSLGTQTYICNVNHKPSNTKVDKKVEPKSCDKTHTCPPCPAPELLGEDSVFLFPPKPKDTLYISRTPEVTCVVVDVSHEDPEVKFNWYVDGVEVHNAKTKPREEQYNSTYRVVSVLTVLHQDWLNGKEYKCKVSNKALPAPIEKTISKAKGQPREPQVYTLPPSRDELTKNQVSLTCLVKGFYPSDIAVEWESNGQPENNYKTTPPVLDSDGSFFLYSKLTVDKSRWQQGNVFSCSVMHEALHYHYTQKSLSLSP
light: DIQMTQSPSSLSASVGDRVTITCRASQDISSYLNWYQQKPGKAPKLLIYYTSRLHSGVPSRFSGSGSGTDFTFTISSLQPEDIATYYCQQGNTLPYTFGQGTKVEIK
notes: PD variant: P238D/G237E introduced into IL6R-F11 (EU numbering); copies: 2 + 2
relative binding activity for FcγRIIb (human FcγRIIb): 101 % of the binding amount of IL6R-F652/IL6R-L
relative binding activity for FcγRIIaR (human FcγRIIa type R): 117 % of the binding amount of IL6R-F652/IL6R-L

B4: IL6R-PD082/IL6R-L (antibody, human IgG1)
heavy: QVQLQESGPGLVKPSETLSLTCAVSGHSISHDHAWSWVRQPPGEGLEWIGFISYSGITNYNPSLQGRVTISRDNSKNTLYLQMNSLRAEDTAVYYCARSLARTTAMDYWGEGTLVTVSSASTKGPSVFPLAPSSKSTSGGTAALGCLVKDYFPEPVTVSWNSGALTSGVHTFPAVLQSSGLYSLSSVVTVPSSSLGTQTYICNVNHKPSNTKVDKKVEPKSCDKTHTCPPCPAPELLGFDSVFLFPPKPKDTLYISRTPEVTCVVVDVSHEDPEVKFNWYVDGVEVHNAKTKPREEQYNSTYRVVSVLTVLHQDWLNGKEYKCKVSNKALPAPIEKTISKAKGQPREPQVYTLPPSRDELTKNQVSLTCLVKGFYPSDIAVEWESNGQPENNYKTTPPVLDSDGSFFLYSKLTVDKSRWQQGNVFSCSVMHEALHYHYTQKSLSLSP
light: DIQMTQSPSSLSASVGDRVTITCRASQDISSYLNWYQQKPGKAPKLLIYYTSRLHSGVPSRFSGSGSGTDFTFTISSLQPEDIATYYCQQGNTLPYTFGQGTKVEIK
notes: PD variant: P238D/G237F introduced into IL6R-F11 (EU numbering); copies: 2 + 2
relative binding activity for FcγRIIb (human FcγRIIb): 108 % of the binding amount of IL6R-F652/IL6R-L
relative binding activity for FcγRIIaR (human FcγRIIa type R): 380 % of the binding amount of IL6R-F652/IL6R-L

B5: IL6R-PD043/IL6R-L (antibody, human IgG1)
heavy: QVQLQESGPGLVKPSETLSLTCAVSGHSISHDHAWSWVRQPPGEGLEWIGFISYSGITNYNPSLQGRVTISRDNSKNTLYLQMNSLRAEDTAVYYCARSLARTTAMDYWGEGTLVTVSSASTKGPSVFPLAPSSKSTSGGTAALGCLVKDYFPEPVTVSWNSGALTSGVHTFPAVLQSSGLYSLSSVVTVPSSSLGTQTYICNVNHKPSNTKVDKKVEPKSCDKTHTCPPCPAPEYLGGDSVFLFPPKPKDTLYISRTPEVTCVVVDVSHEDPEVKFNWYVDGVEVHNAKTKPREEQYNSTYRVVSVLTVLHQDWLNGKEYKCKVSNKALPAPIEKTISKAKGQPREPQVYTLPPSRDELTKNQVSLTCLVKGFYPSDIAVEWESNGQPENNYKTTPPVLDSDGSFFLYSKLTVDKSRWQQGNVFSCSVMHEALHYHYTQKSLSLSP
light: DIQMTQSPSSLSASVGDRVTITCRASQDISSYLNWYQQKPGKAPKLLIYYTSRLHSGVPSRFSGSGSGTDFTFTISSLQPEDIATYYCQQGNTLPYTFGQGTKVEIK
notes: PD variant: P238D/L234Y introduced into IL6R-F11 (EU numbering); copies: 2 + 2
relative binding activity for FcγRIIb (human FcγRIIb): 112 % of the binding amount of IL6R-F652/IL6R-L
relative binding activity for FcγRIIaR (human FcγRIIa type R): 175 % of the binding amount of IL6R-F652/IL6R-L

B6: IL6R-PD042/IL6R-L (antibody, human IgG1)
heavy: QVQLQESGPGLVKPSETLSLTCAVSGHSISHDHAWSWVRQPPGEGLEWIGFISYSGITNYNPSLQGRVTISRDNSKNTLYLQMNSLRAEDTAVYYCARSLARTTAMDYWGEGTLVTVSSASTKGPSVFPLAPSSKSTSGGTAALGCLVKDYFPEPVTVSWNSGALTSGVHTFPAVLQSSGLYSLSSVVTVPSSSLGTQTYICNVNHKPSNTKVDKKVEPKSCDKTHTCPPCPAPEWLGGDSVFLFPPKPKDTLYISRTPEVTCVVVDVSHEDPEVKFNWYVDGVEVHNAKTKPREEQYNSTYRVVSVLTVLHQDWLNGKEYKCKVSNKALPAPIEKTISKAKGQPREPQVYTLPPSRDELTKNQVSLTCLVKGFYPSDIAVEWESNGQPENNYKTTPPVLDSDGSFFLYSKLTVDKSRWQQGNVFSCSVMHEALHYHYTQKSLSLSP
light: DIQMTQSPSSLSASVGDRVTITCRASQDISSYLNWYQQKPGKAPKLLIYYTSRLHSGVPSRFSGSGSGTDFTFTISSLQPEDIATYYCQQGNTLPYTFGQGTKVEIK
notes: PD variant: P238D/L234W introduced into IL6R-F11 (EU numbering); copies: 2 + 2
relative binding activity for FcγRIIb (human FcγRIIb): 106 % of the binding amount of IL6R-F652/IL6R-L
relative binding activity for FcγRIIaR (human FcγRIIa type R): 240 % of the binding amount of IL6R-F652/IL6R-L

B7: IL6R-PD080/IL6R-L (antibody)
heavy: QVQLQESGPGLVKPSETLSLTCAVSGHSISHDHAWSWVRQPPGEGLEWIGFISYSGITNYNPSLQGRVTISRDNSKNTLYLQMNSLRAEDTAVYYCARSLARTTAMDYWGEGTLVTVSSASTKGPSVFPLAPSSKSTSGGTAALGCLVKDYFPEPVTVSWNSGALTSGVHTFPAVLQSSGLYSLSSVVTVPSSSLGTQTYICNVNHKPSNTKVDKKVEPKSCDKTHTCPPCPAPELLGDDSVFLFPPKPKDTLYISRTPEVTCVVVDVSHEDPEVKFNWYVDGVEVHNAKTKPREEQYNSTYRVVSVLTVLHQDWLNGKEYKCKVSNKALPAPIEKTISKAKGQPREPQVYTLPPSRDELTKNQVSLTCLVKGFYPSDIAVEWESNGQPENNYKTTPPVLDSDGSFFLYSKLTVDKSRWQQGNVFSCSVMHEALHYHYTQKSLSLSP
light: DIQMTQSPSSLSASVGDRVTITCRASQDISSYLNWYQQKPGKAPKLLIYYTSRLHSGVPSRFSGSGSGTDFTFTISSLQPEDIATYYCQQGNTLPYTFGQGTKVEIK
notes: PD variant: P238D/G237D introduced into IL6R-F11 (EU numbering); copies: 2 + 2
relative binding activity for FcγRIIb (human FcγRIIb): 127 % of the binding amount of IL6R-F652/IL6R-L
relative binding activity for FcγRIIaR (human FcγRIIa type R): 222 % of the binding amount of IL6R-F652/IL6R-L
